Measurements from patent US6897197 (ALBERT EINSTEIN COLLEGE OF MEDICINE OF YESHIVA UNIVERSITY, dated 2005).

B1: FLAG epitope-tagged p19^ARF protein (other, mouse, UniProt Q64364 1-169, looked up, not shown: small tags and cut ends)
chain: MGRRFLVTVRIQRAGRPLQERVFLVKFVRSRRPRTASCALAFVNMLLRLERILRRGPHRNPGPGDDDGQRSRSSSSAQLRCRFELRGPHYLLPPGARRSAGRLPGHAGGAARVRGSAGCARCLGSPAARLGPRAGTSRHRAIFAFRWVLFVFRWVVFVYRWERRPDRRA
notes: Expressed from pcDNA in transfected 293T, SAOS2 or HeLa cells; also called p19^FLAG; p19FLAG
B2: endogenous p19^ARF of untransfected 3T3DM cells (other, UniProt Q64364 1-169, looked up)
chain: B1 chain
notes: Immunoprecipitated with rabbit polyclonal anti-p19^ARF antiserum

What was measured:
[1] = target: T1, human MDM2, full length (CMV driven expression construct pCHDM1A) (human, UniProt Q00987 1-491); experiment: low stringency co-immunoprecipitation (anti-FLAG IP, anti-MDM2 Western blot), 293T cells transfected with MDM2 and p19FLAG
T1 construct: Expressed in transfected cells; also called HDM-2
Experimental: (§1) For immunoprecipitations, subconfluent 293T cells were transfected with 3 µg each of the appropriate expression constructs shown in FIG. 3, and 80 µg of Lipofectamine reagent (Gibco BRL). […] Untransfected 3T3-DM cells were lysed in a low stringency buffer as above.

[2] = target: T2, endogenous MDM2 of untransfected 3T3DM cells (UniProt P23804 1-489); experiment: anti-p19^ARF immunoprecipitation, anti-MDM2 Western blot, untransfected 3T3DM cells
T2 construct: 3T3DM is a mouse cell line; Detected with antibody 2A10; also called p90/p85
Experimental: as §1

T2 sequence (P23804 whole entry): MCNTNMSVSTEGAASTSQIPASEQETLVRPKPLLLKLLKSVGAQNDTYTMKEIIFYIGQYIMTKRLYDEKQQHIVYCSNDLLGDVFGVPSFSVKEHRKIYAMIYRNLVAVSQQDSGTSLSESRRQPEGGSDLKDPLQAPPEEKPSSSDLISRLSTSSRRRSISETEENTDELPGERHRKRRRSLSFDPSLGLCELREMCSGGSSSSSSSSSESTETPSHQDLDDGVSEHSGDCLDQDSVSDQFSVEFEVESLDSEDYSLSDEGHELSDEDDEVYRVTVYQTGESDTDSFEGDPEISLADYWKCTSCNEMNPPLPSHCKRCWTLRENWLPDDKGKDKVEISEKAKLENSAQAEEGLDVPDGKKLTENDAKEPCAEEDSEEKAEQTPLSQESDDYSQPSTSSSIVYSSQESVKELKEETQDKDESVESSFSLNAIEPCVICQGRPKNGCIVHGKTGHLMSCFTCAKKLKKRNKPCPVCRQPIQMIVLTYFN
T1 sequence (Q00987 whole entry): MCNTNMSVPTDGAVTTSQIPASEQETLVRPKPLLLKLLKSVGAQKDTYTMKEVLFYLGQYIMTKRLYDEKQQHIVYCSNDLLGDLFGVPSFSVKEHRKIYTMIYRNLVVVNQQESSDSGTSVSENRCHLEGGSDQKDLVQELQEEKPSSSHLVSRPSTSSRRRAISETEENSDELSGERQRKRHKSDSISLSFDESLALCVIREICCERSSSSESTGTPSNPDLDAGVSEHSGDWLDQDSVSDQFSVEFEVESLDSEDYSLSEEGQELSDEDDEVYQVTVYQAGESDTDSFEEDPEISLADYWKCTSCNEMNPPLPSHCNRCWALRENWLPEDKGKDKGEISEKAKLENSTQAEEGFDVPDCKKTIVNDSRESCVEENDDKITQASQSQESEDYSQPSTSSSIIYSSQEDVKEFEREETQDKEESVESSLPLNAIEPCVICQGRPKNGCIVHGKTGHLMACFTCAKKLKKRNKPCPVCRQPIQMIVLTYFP

| Binder | binding result [1] | binding result [2] |
| --- | --- | --- |
| B1 | binds |  |
| B2 |  | binds |
